± gives the standard error. For part of these data: Variants at the floor of the assay were thinned out.
B1: glmS ribozyme (parent)
chain: AUAAAAGCGCCAGAACUACAGAAAUGUAGUUGACGAGGAGGAGGUUUAUCGAAUUUUCGGCGGAUGCCUCCAAA

Experiments:
Conditions in all cases: with glucosamine-6-phosphate
[1] = variants of: B1; test: kcat; higher = faster cleavage; RNA array
In short: (§1)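 Glucosamine-6-phosphate in HEPES/KCl/Mg(OAc)2 buffer, at 40 μM to 10 mM, was flowed over barcoded ribozyme variants transcribed in situ by E. coli RNA polymerase on sequenced MiSeq chips. Tracking was through a hybridised Cy3 probe at 37 °C. kobs, kcat and KM came from exponential decay fits and weighted Michaelis–Menten fits of normalised per-tile medians.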

[2] = variants of: B1; test: KM; higher = weaker cofactor use; RNA array
In short: as §1

[3] = variants of: B1; test: self-cleavage kobs at 160 uM GlcN6P; higher = faster cleavage; RNA array
In short: as §1

[4] = variants of: B1; test: self-cleavage kobs at 640 uM GlcN6P; higher = faster cleavage; RNA array
In short: as §1

[5] = variants of: B1; test: self-cleavage kobs at 2500 uM GlcN6P; higher = faster cleavage; RNA array
In short: as §1

[6] = variants of: B1; test: self-cleavage kobs at 10000 uM GlcN6P; higher = faster cleavage; RNA array
In short: as §1

[7] = variants of: B1; test: self-cleavage kobs at 40 uM GlcN6P; higher = faster cleavage; RNA array
In short: as §1

Variant | kcat [1] | KM [2] | self-cleavage kobs at 160 uM GlcN6P [3] | self-cleavage kobs at 640 uM GlcN6P [4] | self-cleavage kobs at 2500 uM GlcN6P [5] | self-cleavage kobs at 10000 uM GlcN6P [6] | self-cleavage kobs at 40 uM GlcN6P [7]
A14C C67G | 0.000353 ± 6.7e-05 s⁻¹ | 2730 ± 860 µM | 3.67e-05 ± 7.3e-06 s⁻¹ | 6.56e-05 ± 5.7e-06 s⁻¹ | 0.000156 ± 1.5e-05 s⁻¹ | 0.000293 ± 2.8e-05 s⁻¹ | –
A14C C67U | 0.00159 ± 0.00047 s⁻¹ | 1720 ± 820 µM | 0.000119 ± 1.7e-05 s⁻¹ | 0.000511 ± 6e-05 s⁻¹ | 0.000783 ± 8.1e-05 s⁻¹ | 0.00184 ± 0.00023 s⁻¹ | 5.24e-05 ± 9e-06 s⁻¹
C10U C71G | 1.65e-05 ± 5.1e-06 s⁻¹ | – | – | – | – | – | < 1e-05 s⁻¹
U46A U54C | 0.00402 ± 0.0012 s⁻¹ | 3310 ± 1300 µM | 0.000153 ± 3.9e-05 s⁻¹ | 0.000982 ± 0.00017 s⁻¹ | 0.00157 ± 0.00051 s⁻¹ | 0.00295 ± 0.00051 s⁻¹ | 4.31e-05 ± 1.1e-05 s⁻¹
U30G U46A | 0.000655 ± 7e-05 s⁻¹ | 3710 ± 930 µM | – | – | 0.000252 ± 5.8e-05 s⁻¹ | 0.000483 ± 6.6e-05 s⁻¹ | –
A48C A53G | 0.000334 ± 1.5e-05 s⁻¹ | 2130 ± 190 µM | – | 7.49e-05 ± 1.2e-05 s⁻¹ | 0.000187 ± 2.9e-05 s⁻¹ | 0.000272 ± 3.6e-05 s⁻¹ | –
U30G C67G | 0.000155 ± 9.6e-06 s⁻¹ | 2050 ± 310 µM | – | 3.99e-05 ± 9.3e-06 s⁻¹ | 8.11e-05 ± 1e-05 s⁻¹ | 0.000132 ± 1.6e-05 s⁻¹ | –
A42C G60C | < 1e-05 s⁻¹ | – | < 1e-05 s⁻¹ | < 1e-05 s⁻¹ | – | – | < 1e-05 s⁻¹
U45G A52G | 0.000403 ± 0.0001 s⁻¹ | 3100 ± 1400 µM | – | 8.01e-05 ± 1.6e-05 s⁻¹ | 0.000142 ± 3.2e-05 s⁻¹ | 0.000345 ± 6e-05 s⁻¹ | –
C16U G37C | 1.3e-05 ± 3e-06 s⁻¹ | – | – | – | – | – | < 1e-05 s⁻¹
U55C C71U | 0.00258 ± 5.1e-05 s⁻¹ | 1620 ± 49 µM | 0.000225 ± 3.7e-05 s⁻¹ | 0.000749 ± 0.00015 s⁻¹ | 0.00157 ± 0.00021 s⁻¹ | 0.00222 ± 0.00029 s⁻¹ | 6.36e-05 ± 1e-05 s⁻¹
A15C G66U | 0.000265 ± 3.3e-05 s⁻¹ | 3080 ± 740 µM | – | 4.02e-05 ± 7.2e-06 s⁻¹ | 0.000134 ± 1.5e-05 s⁻¹ | 0.000194 ± 2.2e-05 s⁻¹ | –
G37U C50A | < 1e-05 s⁻¹ | – | – | < 1e-05 s⁻¹ | – | < 1e-05 s⁻¹ | –
G7C A36G G37U A52U U57C G63U | < 1e-05 s⁻¹ | – | – | – | < 1e-05 s⁻¹ | – | –
A33C U55G | 0.000433 ± 0.00012 s⁻¹ | 2970 ± 1400 µM | – | 9.32e-05 ± 1.6e-05 s⁻¹ | 0.000163 ± 2.8e-05 s⁻¹ | 0.000384 ± 6.3e-05 s⁻¹ | –

Reference: the supplement of paper PMC7125110
